Results reported in patent US5702926.

Test system: Bca DNA polymerase
Conditions: unmodified dCTP; 39 units/µl with dCTPalphaS, 40-50 with dCTPalphaBH3; 4 mM Mg, 60 C

activated calf thymus DNA
activity: 152 units/µl
